Earlier results, collected in US20070299244A1, “Liposome allowing liposome-entrapped substance to escape from endosome” (Japan Science and Technology Agency, priority 2005, published 2007).
Like-named read-outs stand apart in the source and are kept apart here.

In the case of “GALA: synthetic peptide comprising the amino acid sequence represented by SEQ ID NO:1 (AALAELAEALAEALHEALAEALAEALAAEW; Designed peptide called “GALA”)”, the “Proportion of α helix structures” value (pH 5.0) is given as “about 70%” and the “Proportion of α helix structures” value (pH 7.4) is given as “about 20%”.
